Test: Intravital fluorescence imaging of BSA-AF release in the knee joint after intra-articular injection
Type: in vivo
Details: total radiant efficiency from knee joint, released from HA-g-PNIPAm hydrogels

Which “time detected in the knee joints” value does the source give for “Alexa Fluor 680 conjugated BSA: Alexa Fluor 680 conjugated BSA released from HA-g-PNIPAm hydrogels” here?
The value was “more than 24 hours”.

What about the “time of maximum concentration post intra-articular injection” value (n=4) of the same substance?
The value was 6 to 12 h.

Reference: patent publication US12458703B2, “Responsive elastic polymers and methods of making and using same” (Purdue Research Foundation, priority 2016, dated 2025)
